The target of this test is Insulin Aspart (human). The experiment in a line: hexamer dissociation kinetics.

Consider Insulin Aspart (natural protein), for which the Hexamer t½ (dissociation of the Zn2+-hexamer) came to 42.7 s.
